The data set concerns the molecule itself. The data set is described as follows: SEC. Background: Size exclusion chromatography separates by hydrodynamic size, large species first.

B1: DepH from Chromobacterium violaceum No. 968 (enzyme)
chain: not shown
The stoichiometry N is a count of units in the complex or per binding partner. For the protein B1, the “stoichiometry N” value stood at 2.

(Values after article PMC4894451 (Scientific Reports, 2014).)
